Test results taken from patent US6492344B1, “Syndecan enhancer element and syndecan stimulation of cellular differentiation” (Biotie Therapies Corp., priority 1993, dated 2002).
Entries after “also recorded” stand apart in the source; their conditions may differ.

How the values were obtained:
[1] = test system: nuclear factors binding FiRE motifs 1-5; assay type: cell-based, mouse
Description: The Enhancer Comprises Five DNA Binding Motifs. Plasmid pFiRE was end-labeled using Klenow fragment and […]. DNAse I footprinting was performed with labeled pFiRE vector alone (naked), together with FGF-induced nuclear extracts (FGF-2), and together with non-induced nuclear extracts (control). To obtain nuclear extracts, NIH3T3 cells were plated on 16 cm dishes and treated with or without FGF-2 for 1 day. Nuclear proteins were extracted using a modification described by Lee et al., Gene Anal. Techn. 5:22-31 (1988). Protein concentrations were measured by the Bradford method.
In a 12 μl reaction, 5 μg of the nuclear extracts were incubated with labeled oligonucleotide, 2 μg of poly-d[I-C] and 2×reaction buffer, i.e., […], pH 7.5; 100 mM NaCl; 2 mM EDTA; and 10% glycerol for 15 minutes at room temperature. Non-labeled competitor oligonucleotides were used at 100-fold molar excess. The complexes were analyzed by electrophoresis in a 4.5% polyacrylamide gel. For supershifts, 0.1 μg of specific antibody was added to the reaction 15 minutes before the labeled oligonucleotide. […]
These motifs was further analyzed by competing the binding of nuclear factors with a molar excess of specific (s) and non-specific (ns) oligonucleotides. […] The resulting complexes were analyzed by the gel retardation analysis described above. […]

[2] = test system: syndecan-1 enhancer element (pXb6); test: CAT reporter assay of syndecan upstream fragment pXb6 in 3T3 NIH cells; assay type: cell-based, mouse; details: 3T3NIH cells transiently transfected; FGF-2 alone
Excerpt: Determination of Mouse Syndecan Promoter and Enhancer Activities. The mouse syndecan-1 gene has been cloned and characterized up to −10 kbs upstream from the transcription start site. To determine the specific activities of different proximal promoter regions (up to −2 kbs from the start site) and enhancer regions (from −2 to −10 kbs) we have made plasmid constructs in which these regions were cloned into pCAT basic or pCAT promoter vectors, containing the CAT reporter gene. The reporter CAT gene produces the enzyme chloramphenicol acetyltransferase, which transfers the n-butyryl moiety of n-butyryl CoA to chloramphenicol. […]
The plasmid constructs were transiently transfected into eukaryotic cells by calcium phosphate precipitation simultaneously with a β-Galactosidase expressing vector to determine transfection efficiency. […] This was incubated from 2 hours to overnight and the color reaction was measured spectrophotometrically at 420 nm.
CAT activity was determined by adding 0.25 M Tris buffer, 25 ng n-butyryl CoA and 0.0626 μCi of ^14C-chloramphenicol to the cytoplasmic extract. Samples were incubated overnight, extracted with xylene and the radioactivity present was measured by scintillation counting. CAT activity was corrected for transfection efficiency as determined by assays of β-galactosidase activity. […]

[3] = test system: FGF-inducible Response Element (FiRE); test: FiRE / Syn Prom CAT reporter in MCA3D keratinocytes; assay type: cell-based; details: MCA3D mouse keratinocytes transfected with FiRE construct
Description: The cells used for proximal promoter constructs were 3T3 NIH, S115 (either hormone-treated or not) and nMuMG cells. For enhancer constructs we used 3T3 NIH cells grown in 2% CMS medium and MCA 3D cells grown in Ham's medium. 3T3 NIH cells were also used to test the effect of growth factors in 2% CMS medium with 10 ng/ml FGF-2 and 2ng/ml TGFβ-1. MCA 3D cells were used to test the effect of 10 ng/ml KGF.
FiRE is Induced Selectively by FGF-7 in Keratinocytes. The ability of FiRE to enhance transcription was tested in the mouse keratinocyte cell line MCA3D (Kuliz-Martin et al., Carcinogenesis 4:1367-1377 (1983)). MCA3D cells were transfected as described supra for mouse NIH3T3 cells. Following transfection, the cells were treated with fetal calf serum, PDGF, FGF-1, FGF-2, and FGF-7 as described supra for the NIH3T3 cells.

FGF-2: Basic fibroblast growth factor (FGF-2 or bFGF); recombinant human
nuclear protein binding to motifs 1 and 2 [1]: do not show binding to an FGF-2 inducible factor
nuclear protein binding to motifs 3, 4 and 5 [1]: bind at least one specific FGF-2 inducible nuclear protein
CAT gene expression from plasmid pXb6 [2]: increase in CAT gene expression
FiRE activation [3]: failed to activate FiRE; also recorded: only slightly activated FiRE
